Drawing on the supplement of paper PMC10567573, this text covers protein stability index for 94 variants.

Sequences and labels used below:
B1: P2RY14 (parent)
chain: KKIFKSHLKSSRNSTSVKKKSSRN
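Further: lentivirally expressed fusions sorted by FACS into six bins by GFP to DsRed ratio, PSI derived from sequencing read proportions per bin multiplied by bin number.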

The variants in the series derive from B1. Description: protein stability index of a GFP-peptide fusion (GPS, HEK-293T) (PSI 1-6); higher = more stable. The settings on record: c terminus: a fixed tail appended.
For KKSFKSHLKSSRNSTSVKKKSSRN [I3S], the protein stability index was 4.6. The same measure for KKTFKSHLKSSRNSTSVKKKSSRN [I3T]: 4.66. As for KCIFKSHLKSSRNSTSVKKKSSRN [K2C], the figure is 3.88; as for KGIFKSHLKSSRNSTSVKKKSSRN [K2G], 4.12. The same measure for KAIFKSHLKSSRNSTSVKKKSSRN [K2A]: 3.91; for KQIFKSHLKSSRNSTSVKKKSSRN [K2Q]: 4.04.

On to KNIFKSHLKSSRNSTSVKKKSSRN [K2N], for which the protein stability index was found to be 4.13. As for KWIFKSHLKSSRNSTSVKKKSSRN [K2W], the figure is 3.12. Consider KYIFKSHLKSSRNSTSVKKKSSRN [K2Y], for which the protein stability index was found to be 3.67. Consider KKIFKSHLKSSRNSTSVLKKSSRN [K18L], for which the protein stability index came out at 3.86. As for KKIFKSHLKSSRNSTSVIKKSSRN [K18I], the figure is 3.7; as for KKIFKSHLKSSRNSTSVQKKSSRN [K18Q], 3.67.

As to KKIFKSHLKSSRNSTSVFKKSSRN [K18F], the protein stability index came to 3.54. The same measure for KKIFKSHLMSSRNSTSVKKKSSRN [K9M]: 4; for KKIFKSHLHSSRNSTSVKKKSSRN [K9H]: 4.41. As for KKIFKSHLRSSRNSTSVKKKSSRN [K9R], the figure is 4.27; as for KKIFKSHLFSSRNSTSVKKKSSRN [K9F], 3.57. As for KKIFKSHLQSSRNSTSVKKKSSRN [K9Q], the figure is 4.04; as for KKIFKSHEKSSRNSTSVKKKSSRN [L8E], 4.43; as for KKIFKSHMKSSRNSTSVKKKSSRN [L8M], 4.11. As for KKIFKSHTKSSRNSTSVKKKSSRN [L8T], the protein stability index was determined as 4.3. The same measure for KKIFKSHDKSSRNSTSVKKKSSRN [L8D]: 4.58; for KKIFKSHHKSSRNSTSVKKKSSRN [L8H]: 4.05; for KKIFKSHAKSSRNSTSVKKKSSRN [L8A]: 4.56. As for KKIFKSHLKSSRNSTSVKKKTSRN [S21T], the protein stability index is 3.8. The same measure for KKIFKSHLKSSRNSTSVKKKPSRN [S21P]: 3.72; for KKIFKSHLKSSRNSTSVKKKASRN [S21A]: 3.98. The same measure for KKIFKSHLKSSRNSTSVKKKLSRN [S21L]: 3.77; for KKIFKSHLKSSRNSTSVKKKESRN [S21E]: 3.8; for KKIFKSHLKSSRNSTSVKKKFSRN [S21F]: 3.73. As for KKIFKSHLKSSRNSTSVKKKNSRN [S21N], the figure is 4.17; as for KKIFKSHLKSSRNSTSVKKKWSRN [S21W], 3.3. For the variant KKIFKSHLKSSRNYTSVKKKSSRN [S14Y], the protein stability index is 4.1. As for KKIFKSHLKSSRNCTSVKKKSSRN [S14C], the figure is 4.31; as for KKIFKSHLKSSRNFTSVKKKSSRN [S14F], 3.84.

Consider KKIFKSHLKSSRNVTSVKKKSSRN [S14V], for which the protein stability index was 3.84. For KKIFKSHLKSSRNGTSVKKKSSRN [S14G], the protein stability index amounted to 4.22.

As to KKIFKSHLKSSRNWTSVKKKSSRN [S14W], the protein stability index came out at 3.44.

For the variant KKIFKSHLKSSRNMTSVKKKSSRN [S14M], the protein stability index was found to be 3.98. As for KKIFKSHLKSSRNPTSVKKKSSRN [S14P], the figure is 4.43. As for KKIFKSHLKSSRNQTSVKKKSSRN [S14Q], the figure is 3.69; as for KKIFKSHLKSSRNSTWVKKKSSRN [S16W], 3.69.

With KKIFKSHLKSSRNSTEVKKKSSRN [S16E], the protein stability index is 4.13.

For KKIFKSHLKSSRNSTNVKKKSSRN [S16N], the protein stability index is 4.26. As for KKIFKSHLKSSRNSTHVKKKSSRN [S16H], the figure is 4.45; as for KKIFKSHLKSSRNSTMVKKKSSRN [S16M], 4.35.

For KKIFKSHLKSSRNSTCVKKKSSRN [S16C], the protein stability index was determined as 3.38. Regarding KKIFKSHLKSSRNSTTVKKKSSRN [S16T], the protein stability index was found to be 4.22. For KKIFKSHLKSSRASTSVKKKSSRN [N13A], the protein stability index came out at 4.12. As for KKIFKSHLKSSRKSTSVKKKSSRN [N13K], the figure is 3.95; as for KKIFKSHLKSSRSSTSVKKKSSRN [N13S], 4.89; as for KKIFKSHLKSSRGSTSVKKKSSRN [N13G], 4.11. As for KKIFKSHLKSSRTSTSVKKKSSRN [N13T], the figure is 4.5; as for KKIFKDHLKSSRNSTSVKKKSSRN [S6D], 4.62; as for KKIFKHHLKSSRNSTSVKKKSSRN [S6H], 3.9. The same measure for KKIFKRHLKSSRNSTSVKKKSSRN [S6R]: 4.49; for KKIFKLHLKSSRNSTSVKKKSSRN [S6L]: 3.18. Take KKIFKNHLKSSRNSTSVKKKSSRN [S6N]: the protein stability index was found to be 4.57.

As for KKIFKTHLKSSRNSTSVKKKSSRN [S6T], the protein stability index worked out at 4.11. The same measure for KKIFKIHLKSSRNSTSVKKKSSRN [S6I]: 3.5; for KKIFKWHLKSSRNSTSVKKKSSRN [S6W]: 3.26. As for KKIFKGHLKSSRNSTSVKKKSSRN [S6G], the figure is 4.18; as for KKIFPSHLKSSRNSTSVKKKSSRN [K5P], 4.18; as for KKIFDSHLKSSRNSTSVKKKSSRN [K5D], 4.16.

Consider KKIFESHLKSSRNSTSVKKKSSRN [K5E], for which the protein stability index came out at 3.89. As for KKIFYSHLKSSRNSTSVKKKSSRN [K5Y], the figure is 3.48; as for KKIFMSHLKSSRNSTSVKKKSSRN [K5M], 3.95; as for KKIFSSHLKSSRNSTSVKKKSSRN [K5S], 4.2.

Regarding KKIFKSHLKSSRNSTSVKKLSSRN [K20L], the protein stability index worked out at 3.42. For the variant KKIFKSHLKSSRNSTSVKKNSSRN [K20N], the protein stability index stood at 3.86. Turning to KKIFKSHLKSSRNSTSVKKRSSRN [K20R], the protein stability index stood at 4.39. The same measure for KKIFKSHLKSSRNSTSVKKTSSRN [K20T]: 3.62; for KKIFKSHLKSSRNSTSVKKWSSRN [K20W]: 3.15. As for KKIFKSHLKSSRNSTSVKKISSRN [K20I], the figure is 3.5; as for KKIFKSHLKSSRNSTSVKKKSSRD [N24D], 4.29; as for KKIFKSHLKSSRNSTSVKKKSSRM [N24M], 3.3. As for KKIFKSHLKSSRNSTSVKKKSSRA [N24A], the figure is 4.14. For KKIFKSHLKSSRNSTSVKKKSSRK [N24K], the protein stability index is 3.81. The same measure for KKIFKSHLKSSRNSTSVKKKSSRT [N24T]: 4.28; for CKIFKSHLKSSRNSTSVKKKSSRN [K1C]: 3.51; for EKIFKSHLKSSRNSTSVKKKSSRN [K1E]: 3.97.

For the variant VKIFKSHLKSSRNSTSVKKKSSRN [K1V], the protein stability index came out at 3.5. The same measure for FKIFKSHLKSSRNSTSVKKKSSRN [K1F]: 3.8; for QKIFKSHLKSSRNSTSVKKKSSRN [K1Q]: 4.25; for RKIFKSHLKSSRNSTSVKKKSSRN [K1R]: 3.42. As for DKIFKSHLKSSRNSTSVKKKSSRN [K1D], the figure is 4.5; as for IKIFKSHLKSSRNSTSVKKKSSRN [K1I], 2.88; as for SKIFKSHLKSSRNSTSVKKKSSRN [K1S], 4.26. As for KKIFKSHLKSSQNSTSVKKKSSRN [R12Q], the figure is 4.16. For the variant KKIFKSHLKSSVNSTSVKKKSSRN [R12V], the protein stability index came out at 4.45. In the case of KKIFKSHLKSSENSTSVKKKSSRN [R12E], the protein stability index was 4.08. KKIFKSHLKSSMNSTSVKKKSSRN [R12M]: the protein stability index stood at 4.03. As for KKIFKSHLKSSCNSTSVKKKSSRN [R12C], the protein stability index was 3.6. With KKIFKSHLKSSINSTSVKKKSSRN [R12I], the protein stability index stood at 3.8.
